Test results as given in patent US20250041339A1 (University of Pennsylvania, published 2025).

T1: tCD45RO_WT (truncated, N-terminally myc-tagged wild-type CD45RO construct) (human, UniProt P08575 1-604)
T1 construct: Expressed from lentivirus on CD45-negative NALM6 cells; also called WT CD45; CD45 WT
T1 sequence: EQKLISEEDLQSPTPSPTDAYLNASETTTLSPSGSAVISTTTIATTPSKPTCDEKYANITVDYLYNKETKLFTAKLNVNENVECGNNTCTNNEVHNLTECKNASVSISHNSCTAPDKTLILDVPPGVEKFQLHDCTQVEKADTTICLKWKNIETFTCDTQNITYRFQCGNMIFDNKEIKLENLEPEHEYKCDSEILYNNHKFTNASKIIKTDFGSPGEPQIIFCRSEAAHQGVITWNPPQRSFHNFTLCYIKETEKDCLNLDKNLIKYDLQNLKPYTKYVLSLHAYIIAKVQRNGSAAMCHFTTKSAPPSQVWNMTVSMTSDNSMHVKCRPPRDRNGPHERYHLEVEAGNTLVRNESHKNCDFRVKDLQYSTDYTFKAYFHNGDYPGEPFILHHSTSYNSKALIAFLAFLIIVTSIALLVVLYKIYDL

T2: tCD45_RO_T8A (CD45RO with Thr8 changed to alanine) (human, UniProt P08575 1-604)
T2 construct: The entry already carries the substitution, the signal peptide and the myc tag
T2 sequence: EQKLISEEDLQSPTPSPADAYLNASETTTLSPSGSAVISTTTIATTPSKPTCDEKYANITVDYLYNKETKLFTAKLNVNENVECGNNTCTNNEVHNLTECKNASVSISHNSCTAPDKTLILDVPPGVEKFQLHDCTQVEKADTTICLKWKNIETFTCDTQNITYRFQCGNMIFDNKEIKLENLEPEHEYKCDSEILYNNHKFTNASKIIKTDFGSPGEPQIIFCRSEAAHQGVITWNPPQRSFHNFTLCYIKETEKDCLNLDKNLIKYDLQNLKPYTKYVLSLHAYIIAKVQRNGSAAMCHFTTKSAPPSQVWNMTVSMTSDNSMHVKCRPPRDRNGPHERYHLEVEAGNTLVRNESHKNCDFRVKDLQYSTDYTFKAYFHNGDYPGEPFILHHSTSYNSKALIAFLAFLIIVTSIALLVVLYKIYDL


What was measured:
[1] = target: T1, tCD45RO_WT (truncated, N-terminally …); test: staining of cells expressing truncated CD45 constructs with his-tagged scFv/antibody clones
Excerpt: (§1) With the information obtained from the crystal structure (and given that FN domains are evolutionary conserved and stable structures), and without wishing to be bound by theory, it was hypothesized that the subdomains which are recognized by the CAR45-T cells can be narrowed down by sequentially truncating the extracellular domain. The constructs to generate the truncated CD45 constructs were de novo synthesized (FIG. 24A). To verify surface expression of the truncated CD45 constructs, all constructs were myc-tagged at the N-terminus to allow surface staining against the truncated CD45 expressing cell using anti-Myc antibodies followed by readout via flowcytometry. Cells expressing the truncated CD45 constructs were stained with recombinantly expressed, his-tagged scFv/antibody clones from which the CARs were made off. Positive staining for the his tag therefore only occurs when the scFv/antibody clones can bind truncated CD45.

[2] = target: T2, tCD45_RO_T8A (CD45RO with Thr8 changed …); test: antibody staining (figure cited in the text as FIG. 42, left)
[3] = target: T1, tCD45RO_WT (truncated, N-terminally …); test: flow cytometry, his-tag staining of cells expressing myc-tagged truncated CD45 constructs
Excerpt: as §1

Row | Binder | binding result [1] | further results
1 | recombinantly expressed, his-tagged scFv/antibody clone 4B2 (scFv, V domains shown, Soluble his-tagged scFv/antibody clone used to stain cells expressing truncated CD45; also called 4B2 scFv) VH: GVQLQESGAELARPGASVKMSCKASGYTFTSYTMQWVKQRPGQGLEWIGYINPSSGYIKYNQKFKDKVTLTADKSSTTAYMQLSRLTSEDSAVYYCARRGSYFFDFWGQGTSVTVSS VL: DIVITQDELSNPVTSGESVSISCRSSKSLLYKDGKTYLNWFLQRPGQSPQLLIYLMSTRASGVSDRFSGSGSGTDFTLEISRVKAEDVGVYYCQQLVEYPFTFGGGTKLEVK | binds | –
2 | antibody clone UCHL-1 (CD45RO-specific) (antibody, V domains shown, also called muUCHL) VH: QITLKESGPGILQPSQTLSLTCSFSGFSLTTYGIGVGWIRQPPGKGLEWLTHIWWNDNKYYNTALRSRLTISKDSSNNQVLLKIANVDTADTATYYCLYGYTYWGQGTLVTVSA VL: DVVMTQTPLSLPVSLGDQASISCRSSQSLLYSNGNTYLHWYLQKPGQSPKLLIYKLSNRFSGVPDRFSGSGSGTDFTLKISRVEAEDLGVYFCSQSTHVPWTFGGGTKLEIK | – | binding result [2]: no binding
3 | recombinantly expressed, his-tagged scFv from the BC8 clone (scFv, V domains shown, Soluble his-tagged scFv used to stain cells; also called BC8 scFv) VH: QVQLVESGGGLVQPGGSLKLSCAASGFDFSRYWMSWVRQAPGKGLEWIGEINPTSSTINFTPSLKDKVFISRDNAKNTLYLQMSKVRSEDTALYYCARGNYYRYGDAMDYWGQGTSVTVS VL: DIVLTQSPASLAVSLGQRATISCRASKSVSTSGYSYLHWYQQKPGQPPKLLIYLASNLESGVPARFSGSGSGTDFTLNIHPVEEEDAATYYCQHSRELPFTFGSGTKLEIK | – | binding result [3]: binds

The next lines start with results.

Row | binding result [1] | Binder | further results
4 | binds | recombinantly expressed, his-tagged scFv/antibody clone 9.4 (scFv, V domains shown, Soluble his-tagged scFv/antibody clone used to stain cells expressing truncated CD45; also called 9.4 scFv) VH: QVQLQQLGAELARPGASVKMSCKASGYTFTSYSIQWVKQRPGQGLEWIGYINPSSGYIKYNQHFRDRATLTADRSSSTAYMQLSSLTSEDSAVYYCARGNSGSFDYWGQGTTLTVSS VL: DIVMTQAAPSVPVTPGESLSISCRSSKSLLHSSGITYLYWFLQRPGQSPQLLIYRMSNLASGVPDRFSGSGSGTAFTLRISRVEAEDVGVYYCMQHLEYPFTFGGGTKLEIK | –
5 | binds | recombinantly expressed, his-tagged scFv/antibody clone Gap8.3 (scFv, V domains shown, Soluble his-tagged scFv/antibody clone used to stain cells expressing truncated CD45; also called Gap8.3 scFv) VH: EVQLQQSGPELVKTGASVKISCKASGYSFTGYFIHWVKQSHGKSLEWIGYISCYNGATSYNQKFKGKATFTVDTSSSTAYMQFNSVTSEDSAVYYCVRNYYGNLDAMDYWGQGTSVTVSS VL: DIVMTQSHKFMSTSVGDRVSITCKASQDVSTAVAWYQQKPGQSPKILIYSASYRYTGVPDRFTGSGSGTDFTFTISSVQAEDLAVYYCQQHYSTPRTFGGGTKLEIK | –
